The values below come from patent US20180215825A1 (BEIGENE, published 2018).

Numbering of substitutions follows the chain as printed. Names and notes keep the numbering of the source. Where two headings read alike, the source gives them in different places.

Test [1] deals with T1, human PD-L1, full length, expressed on cells (human, UniProt Q9NZQ7 19-290). Briefly: cell-based or functional assay.
For test [2], the target named is T1, human PD-L1, full length, expressed on …. Briefly: FACS on HEK293/PD-L1 cells. How it is done:
(§1) Briefly, 50-200 nanograms of PD-L1/His were diluted in 50 microliters of PBS and coated in each well of 96-well ELISA plates (JinCanHua, Shenzhen, China). After blocking with 3% bovine serum albumin in TBST (20 mM Tris, 150 mM NaCl, 0.05% Tween20, pH7.5) and incubating with culture supernatants of hybridoma clones, the HRP-conjugated horse anti-mouse IgG antibody (Cat. No. 7076S, Cell Signaling Technology) and tetramethylbenzidine (TMB) (Cat. No. PA107-01, TianGen, Beijing, China) were used to detect binding signals by a plate reader (PHREAstar, BMG Labtech, Germany) as light absorbance at 450 nm. The ELISA-positive clones were further verified by fluorescence-activated cell sorting (FACS). PD-L1 expression cells, HEK293/PD-L1 (10⁵ cells/well), were incubated with supernatants from hybridoma clones in V-bottom 96-well plates (Cat. No. 3897, Corning). The cell surface bound PD-L1 antibodies were detected with Dylight 649-conjugated goat anti-mouse IgG antibody (Cat. No. 405312, Biolegend, San Diego, Calif., USA) and cell fluorescence was monitored in a Guava EasyCyte 8HT flow cytometer (Millipore, USA).
(§2) The binding activities of the purified monoclonal antibodies were evaluated in ELISA and FACS assays as described in previous sections. The dose-dependent binding curves in ELISA and FACS were used to compare mAb potency.

The target is the same in test [3]. Briefly: cell-based or functional assay. This is another data set of the same source.
Test [4] has the same target. Briefly: FACS competition with biotin-CD80/Fc on HEK293/PD-L1 cells.
For test [5] the target is unchanged. Briefly: FACS competition with biotin-PD-1/Fc on HEK293/PD-L1 cells. The source says:
Using this method, we evaluated functional strength of anti-PD-L1 mAbs.

For test [6], the target named is T2, human PD-L1-ECD/His (human, UniProt Q9NZQ7 19-238).
T2 construct: Expressed in 293-F cells; also called PD-L1/His; human PD-L1/His
Put plainly: ELISA on coated PD-L1/His. How it is done: as §1, §2
In general terms: An ELISA detects its analyte on a solid surface through an enzyme-linked reagent.

Test [7] has as its target T2, human PD-L1-ECD/His. Put plainly: SPR (BIAcore T-200), human PD-L1/His on CM5 chip, Fab injected. How it is done:
(§3) For affinity determinations of anti-PD-L1 Fabs, SPR assays were performed using BIAcore™ T-200 (GE Life Sciences). Briefly, human PD-L1/His was coupled to an activated CM5 biosensor chip (Cat. No. BR100530, GE Life Sciences) to achieve approximately 100-200 response units (RU), followed by blocking un-reacted groups with 1M ethanolamine. A serial dilutions of 0.12 nM to 90 nM Fab samples were injected, mixed into the SPR running buffer (10 mM HEPES, 150 mM NaCl, 0.05% Tween20, pH7.4) at 30 μL/minute, and binding responses on human PD-L1/His were calculated by substracting of RU from a blank flow-cell. Association rates (kₒₙ) and dissociation rates (koff) were calculated using the one-to-one Langmuir binding model (BIA Evaluation Software, GE Life Sciences). The equilibrium dissociation constant (Kd) was calculated as the ratio koff/kₒₙ.
(§4) For affinity determinations of anti-PD-L1 Fabs, SPR assays were conducted using BIAcore™ T-200 instrument (GE Life Sciences, Shanghai, China) as described earlier. Association rates (kₒₙ) and dissociation rates (koff) were calculated using the one-to-one Langmuir binding model (BIA Evaluation Software, GE Life Sciences). The equilibrium dissociation constant (Kd) was calculated as the ratio koff/kₒₙ.

Test [8] deals with T1, human PD-L1, full length, expressed on …. Briefly: FACS competition with biotin-PD-1/Fc on HEK293/PD-L1 cells. The source holds these as a separate data set.
Test [9] shares this target. Briefly: FACS competition with biotin-CD80/Fc on HEK293/PD-L1 cells. This is another data set of the same source.
Test [10] has the same target. Briefly: cell-based or functional assay. The source holds these as a separate data set.
Test [11] shares this target. Put plainly: cell-based or functional assay. The source holds these as a separate data set.
The target is the same in test [12]. Briefly: FACS competition with biotin-CD80/Fc on HEK293/PD-L1 cells. The source holds these as a separate data set.
Test [13] addresses T2, human PD-L1-ECD/His. Briefly: SPR (BIAcore T-200), human PD-L1/His on CM5 chip, Fab injected. How it is done:
as §3
The source holds these as a separate data set. For orientation: In SPR one partner is held on a chip, and binding of the other changes the refractive index at the surface.

Test [14] deals with T3, cynomolgus monkey PD-L1/His (cynomolgus monkey (Macaca fascicularis), UniProt G7PSE7 19-238).
T3 construct: extracellular domain; Said to be expressed and purified in a similar way to the human PD-L1/His (PD-L1-ECD/His); not shown: His tag
Briefly: SPR (BIAcore T-200), monkey PD-L1, Fab injected.

The target of test [15] is T1, human PD-L1, full length, expressed on …. Put plainly: cell-based or functional assay. This is another data set of the same source.
Test [16] concerns the target T2, human PD-L1-ECD/His. Put plainly: SPR (BIAcore T-200), human PD-L1, Fab injected. How it is done: as §3, §4
Test [17] addresses T1, human PD-L1, full length, expressed on …. Briefly: FACS competition with biotin-PD-1/Fc on HEK293/PD-L1 cells. The source holds these as a separate data set.
The target is the same in test [18]. Put plainly: FACS competition with biotin-CD80/Fc on HEK293/PD-L1 cells. This is another data set of the same source.

T2 sequence (Q9NZQ7 19-238): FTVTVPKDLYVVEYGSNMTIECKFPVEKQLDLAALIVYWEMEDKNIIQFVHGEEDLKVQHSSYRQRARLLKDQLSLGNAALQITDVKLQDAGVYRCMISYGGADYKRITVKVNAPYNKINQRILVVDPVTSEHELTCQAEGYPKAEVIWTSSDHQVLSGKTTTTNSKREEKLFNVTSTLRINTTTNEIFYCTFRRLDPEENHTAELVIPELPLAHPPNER
T3 sequence (G7PSE7 entry or part of it): as the sequence (Q9NZQ7 19-238) above, with A33T, A34S, S62N, R68Q, Q82R, F173L, T185A, T192I, H215L counted along it
T1 sequence (Q9NZQ7 19-290 limits assumed): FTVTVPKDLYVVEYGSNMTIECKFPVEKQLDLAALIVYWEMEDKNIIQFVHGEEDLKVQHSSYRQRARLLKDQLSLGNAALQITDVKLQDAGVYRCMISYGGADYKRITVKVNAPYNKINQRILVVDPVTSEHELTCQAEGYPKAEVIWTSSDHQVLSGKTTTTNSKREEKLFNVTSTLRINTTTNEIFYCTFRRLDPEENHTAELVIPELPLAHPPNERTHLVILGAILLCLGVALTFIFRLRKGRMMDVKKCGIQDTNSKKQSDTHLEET

B1: Murine mAb333 (antibody, V domains shown)
VH: QVQLKESGPGLVAPSQSLSITCTVSGFSLTSYGVHWVRQPPGKGLEWLGVIWAGGSTNYNSALMSRLSISKDNSKSQVVLKMNSLQTDDTAMYYCAKPYGNSAMDYWGQGTSVTVSS
VL: DILMTQSHKFMSTSVGDTVSITCKASQDVGIVVAWYQQKPGQSPKLLIYWASIRHTGVPDRFTGSGSGTDFTLTISNVQSEDLADYFCQQYSNYPLYTFGGGTKLEIK
notes: Murine hybridoma mAb; also called mu333; Mu333
In the case of B1, the “IL-2 release in HuT78/PD-1 cells co-cultured with HEK293/OS8/PD-L1 cells: EC50” value in [1] was found to be 0.092 µg/mL. The EC50 (in general, the midpoint of the concentration-response curve) was 0.099 µg/mL in test [2] and 0.036 µg/mL in test [6]. In addition, in test [3], the “Inhibition of IL-2 secretion in HuT78/P3Z cells co-cultured with HEK293/PD-L1 cells: IC50” value stood at 0.021 µg/mL. The IC50 (commonly the concentration needed to halve the response being measured) in test [4] was determined as 0.052 µg/mL; in [5], 0.463 µg/mL.

B2: hu333-3C2 Fab (Fab, V domains shown)
VH: EVQLVESGGGLVQPGGSLRLSCAVSGFSLTSYGVHWVRQAPGKGLEWVAVIWAGGSTNYADSVKGRFTISKDNSKNTVYLQMNSLRAEDTAVYYCAKPYGNSAMDYWGQGTLVTVSS
VL: DIQMTQSPSSLSASVGDRVTITCKASQDVGIVVAWYQQKPGKAPKLLIYWASIRHTGVPSRFSGSGSGTEFTLTISSLQPDDFATYYCQQYSNYPLYTFGQGTKVEIK
notes: Human Fab format; constant parts not restated
With B2, in test [7], the Kd (commonly the free concentration of one partner at which half of the binding sites on the other are occupied at equilibrium, for simple one-to-one binding) came out at 8.09 pM; the koff (as a rule, the rate constant with which the complex falls apart) was 1.15e-05 s⁻¹; the kon (in general, the rate constant with which the complex forms) was found to be 1.42e+06 M⁻¹ s⁻¹. In test [8], this molecule displayed an IC50 of 0.065 µg/mL and a Max inhibition of 100%. In test [9], this molecule displayed a half-inhibitory concentration (IC50) of 0.073 µg/mL and a Max inhibition of 99%. Moreover, in test [10], the “IL-2 release in HuT78/P3Z: IC50” value turned out to be 0.013 µg/mL, the “IL-2 release in HuT78/P3Z: Max inhibition” value amounted to 100%, the “IL-2 release in HuT78/PD-1: EC50” value worked out at 0.046 µg/mL and the “IL-2 release in HuT78/PD-1: Top line” value amounted to 3120 pg/mL.

B3: hu333-2B Fab (Fab, V domains shown)
VH: B2 VH with A60V, S74A, T77S
VL: B2 VL with S10T, V105L
notes: Human Fab format, His-tagged; constant parts not restated (as for hu333-1A)
As for B3, in test [11], the “IL-2 release in HuT78/P3Z: IC50” value amounted to 0.011 µg/mL and the “IL-2 release in HuT78/PD-1: EC50” value turned out to be 0.054 µg/mL. The IC50 in test [12] was determined as 0.055 µg/mL. Moreover, the IC50 in test [5] was determined as 0.062 µg/mL. In [13], this molecule returned a dissociation constant (Kd) of 1.54 pM, a koff of 2.09e-06 s⁻¹ and an on-rate constant (kon) of 1.36e+06 M⁻¹ s⁻¹.

B4: hu333-1A Fab (Fab, V domains shown)
VH: B2 VH with A60N, D61S, S62A, V63L, K64M, G65S, F67L, S74A, T77S
VL: B2 VL with S10T, V105L
notes: Human Fab format: Vh joined to human IgG2 CH1 with C232S and C233S (Kabat numbering) and a C-terminal 8xHis tag; Vk joined to the constant region of human kappa chain
As for B4, in [11], the “IL-2 release in HuT78/P3Z: IC50” value turned out to be 0.012 µg/mL and the “IL-2 release in HuT78/PD-1: EC50” value was 0.066 µg/mL. The molecule also yielded an IC50 in test [12] of 0.049 µg/mL. Further, the IC50 in [5] worked out at 0.057 µg/mL. In addition, in [13], the Kd came out at 9.88 pM, the koff came to 1.59e-05 s⁻¹ and the kon came to 1.61e+06 M⁻¹ s⁻¹.

B5: hu333-4B2 Fab (Fab, V domains shown)
VH: B2 VH with N73T, N101T
VL: B2 VL
notes: Human IgG1 Fab format: Vh fused to human IgG1-CH1 with C-terminal His6 tag, Vk fused to the constant region of kappa chain
In [14], B5 showed a Kd of 2.5 pM, a dissociation rate constant (koff) of 8e-06 s⁻¹ and a kon of 3.2e+06 M⁻¹ s⁻¹. In [7], this molecule came in with a Kd of 3.5 pM, a koff of 1.32e-05 s⁻¹ and a kon of 3.78e+06 M⁻¹ s⁻¹. In [15], the “IL-2 release in HuT78/P3Z: IC50” value turned out to be 0.016 µg/mL and the “IL-2 release in HuT78/PD-1: EC50” value was 0.058 µg/mL. In test [16], this molecule registered a Kd of 3.5 pM, a koff of 1.32e-05 s⁻¹ and a kon of 3.78e+06 M⁻¹ s⁻¹. Moreover, in test [17], the IC50 was 0.053 µg/mL. Also, in test [18], the IC50 was determined as 0.062 µg/mL.

B6: hu333-3H2 Fab (Fab, V domains shown)
VH: B2 VH with N73T
VL: B2 VL
notes: as for B2
In the case of B6, in test [7], the Kd stood at 34.9 pM, the koff is 4.61e-05 s⁻¹ and the kon came to 1.32e+06 M⁻¹ s⁻¹. In [8], the IC50 turned out to be 0.071 µg/mL and the Max inhibition turned out to be 100%. Further, in test [9], the IC50 was determined as 0.064 µg/mL and the Max inhibition came to 99%. Moreover, in [10], the “IL-2 release in HuT78/P3Z: IC50” value is 0.014 µg/mL, the “IL-2 release in HuT78/P3Z: Max inhibition” value is 100%, the “IL-2 release in HuT78/PD-1: EC50” value is 0.057 µg/mL and the “IL-2 release in HuT78/PD-1: Top line” value came out at 3020 pg/mL.

B7: hu333-4A2 Fab (Fab, V domains shown)
VH: B2 VH with A60V, S74A, N101T
VL: B2 VL
notes: as for B5
In [14], B7 gave a Kd of 2.91 pM, an off-rate constant (koff) of 9.3e-06 s⁻¹ and a kon of 3.19e+06 M⁻¹ s⁻¹. In [7], this molecule displayed a Kd of 2.65 pM, a koff of 1.03e-05 s⁻¹ and a kon of 3.88e+06 M⁻¹ s⁻¹. Further, in [15], the “IL-2 release in HuT78/P3Z: IC50” value is 0.005 µg/mL and the “IL-2 release in HuT78/PD-1: EC50” value is 0.05 µg/mL. In addition, in test [16], the Kd is 2.65 pM, the koff turned out to be 1.03e-05 s⁻¹ and the on-rate constant (kon) amounted to 3.88e+06 M⁻¹ s⁻¹. Moreover, in test [17], the IC50 came to 0.05 µg/mL. Further, in [18], the IC50 stood at 0.045 µg/mL.

B8: hu333-3A2 Fab (Fab, V domains shown)
VH: B2 VH with A60V, F67L, S74A
VL: B2 VL
notes: as for B2
In [7], B8 gave a Kd of 0.17 pM, a koff of 2.2e-07 s⁻¹ and a kon of 1.28e+06 M⁻¹ s⁻¹. Further, in [8], the IC50 worked out at 0.068 µg/mL and the Max inhibition turned out to be 100%. In addition, in test [9], the IC50 worked out at 0.044 µg/mL and the Max inhibition was found to be 99%. Further, in [10], the “IL-2 release in HuT78/P3Z: IC50” value was 0.014 µg/mL, the “IL-2 release in HuT78/P3Z: Max inhibition” value was 95%, the “IL-2 release in HuT78/PD-1: EC50” value worked out at 0.057 µg/mL and the “IL-2 release in HuT78/PD-1: Top line” value was found to be 2550 pg/mL.
